Assay results taken from the supplement of paper PMC12667976.
± gives the standard error.

B1: library; numbered along this chain (parent)
chain: MATDAALRRLLRLHRTEIAVAVDSAFPLLHALADHDVVPEDKFQETLHLKEKEGCPQAFHALLSWLLTQDSTAILDFWRVLFKDYNLERYGRLQPILDSFPKDVDLSQPRKGRKPPAVPKALVPPPRLPTKRKASEEARAAAPAALTPRGTASPGSQLKAKPPKKPESSAEQQRLPLGNGIQTMSASVQRAVAMSSGDVPGARGAVEGILIQQVFESGGSKKCIQVGGEFYTPSKFEDSGSGKNKARSSSGPKPLVRAKGAQGAAPGGGEARLGQQGSVPAPLALPSDPQLHQKNEDECAVCRDGGELICCDGCPRAFHLACLSPPLREIPSGTWRCSSCLQATVQEVQPRAEEPRPQEPPVETPLPPGLRSAGEEVRGPPGEPLAGMDTTLVYKHLPAPPSAAPLPGLDSSALHPLLCVGPEGQQNLAPGARCGVCGDGTDVLRCTHCAAAFHWRCHFPAGTSRPGTGLRCRSCSGDVTPAPVEGVLAPSPARLAPGPAKDDTASHEPALHRDDLESLLSEHTFDGILQWAIQSMARPAAPFPS

Variants of: B1
Assay: AIRE transcriptional activation functional score (insulin promoter-GFP; nonsense median 0, synonymous median 1) (normalised score); higher = higher AIRE activity (more reporter activation)
Conditions: with insulin promoter-GFP reporter in HEK293
Experimental: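 Deep mutational scan of full-length human AIRE (codon-optimized cDNA, DT-POPCode NNN libraries over three regions) integrated at a Bxb1 landing pad in HEK293 cells carrying an insulin core promoter-GFP reporter at a Flp-In site. Cells were sorted for the top 10% GFP about 14 days after transfection. Variant frequency log-ratios (select vs non-select, TileSeq) were rescaled so that the nonsense median is 0 and the synonymous median is 1, then averaged over biological replicates.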

Row | Variant | AIRE transcriptional activation functional score
1 | L158S | 0.724 ± 0.48
2 | P315S | 1.14 ± 0.25
3 | P289N | 0.167 ± 0.083
4 | P289L | 0.891 ± 0.15
5 | R15M | 0.112 ± 0.11
6 | R9V | 0.133 ± 0.31
7 | P367D | 0.924 ± 0.21
8 | S71N | 0.235 ± 0.16
9 | P357L | 1.2 ± 0.13
10 | P357C | 1.23 ± 0.24
11 | P357M | 1.29 ± 0.051
12 | P357H | 0.925 ± 0.15
13 | A160T | 0.43 ± 0.44
14 | A160S | 1.14 ± 0.51
15 | A160C | 1.05 ± 0.24
16 | R8N | -0.26 ± 0.14
17 | G218V | 1.1 ± 0.18
18 | G218S | 0.817 ± 0.31
19 | G218D | 0.885 ± 0.14
20 | K501D | 0.395 ± 0.075
21 | D304P | 0.387 ± 0.11
22 | L87Q | 0.462 ± 0.19
23 | A284I | 1.23 ± 0.24
24 | V348S | 0.865 ± 0.25

Row | Variant | AIRE transcriptional activation functional score
25 | V348P | 0.929 ± 0.38
26 | A496G | 0.999 ± 0.12
27 | G438F | 0.712 ± 0.11
28 | R465T | -0.654 ± 0.16
29 | R465V | 0.453 ± 0.28
30 | H454T | 0.0122 ± 0.18
31 | S156L | 1.55 ± 0.51
32 | T447V | 1.18 ± 0.26
33 | K221G | 0.945 ± 0.26
34 | L341V | 0.917 ± 0.12
35 | L366T | 1.17 ± 0.07
36 | G305Q | 0.0432 ± 0.44
37 | G204D | 0.621 ± 0.36
38 | P405V | 1.21 ± 0.08
39 | P405I | 1.59 ± 0.059
40 | P101N | 0.226 ± 0.17
41 | P101F | -0.111 ± 0.049
42 | V301M | 0.84 ± 0.049
43 | Q173G | 0.757 ± 0.42
44 | Q276F | 1.05 ± 0.044
45 | F100G | -0.223 ± 0.34
46 | P126V | 0.0693 ± 0.094
47 | D198Q | 0.627 ± 0.15
48 | D198S | 1.19 ± 0.26

Row | Variant | AIRE transcriptional activation functional score
49 | W78P | 0.554 ± 0.3
50 | W78Q | -2.24 ± 0.88
51 | V484C | 0.29 ± 0.025
52 | L106V | 0.581 ± 0.31
53 | Q69S | -0.2 ± 0.34
54 | Q69Y | 0.498 ± 0.32
55 | Q69L | -0.119 ± 0.37
56 | T151M | 0.378 ± 0.04
57 | A403D | 0.541 ± 0.099
58 | K259A | 1.23 ± 0.051
59 | L122Y | 1.45 ± 0.31
60 | I224A | 0.495 ± 0.12
61 | L511W | 1.02 ± 0.11
62 | L511R | 0.813 ± 0.17
63 | L511A | 0.757 ± 0.46
64 | D389G | 0.913 ± 0.38
65 | A121W | 1.54 ± 0.14
66 | P539G | 1.47 ± 0.27
67 | P539Y | -0.367 ± 0.19
68 | I96T | -1.01 ± 0.37
69 | I96F | 0.253 ± 0.16
70 | I96P | -0.0986 ± 0.36
71 | L520E | 0.103 ± 0.036
72 | A451P | 0.142 ± 0.14

Row | Variant | AIRE transcriptional activation functional score
73 | A386Y | 1.55 ± 0.17
74 | S464T | 0.783 ± 0.11
75 | H14W | 0.335 ± 0.094
76 | S338H | 1.25 ± 0.079
77 | T468A | 1.03 ± 0.21
78 | A541W | 0.259 ± 0.02
79 | A265S | 1.03 ± 0.17
80 | A265K | 0.641 ± 0.12
81 | F525L | 0.45 ± 0.058
82 | A281L | 1.31 ± 0.25
83 | G424I | -0.488 ± 0.22
84 | E376R | 1.12 ± 0.2
85 | E376Q | 1.62 ± 0.057
86 | E376S | 1.08 ± 0.19
87 | A264E | 0.901 ± 0.1
88 | R127Y | 0.503 ± 0.099
89 | D503Q | 0.845 ± 0.22
90 | D503I | 0.789 ± 0.28
91 | P422F | 0.774 ± 0.39
92 | E237K | 0.979 ± 0.16
93 | A413D | 0.666 ± 0.15
94 | G112L | 1.31 ± 0.58
95 | G112D | 1.13 ± 0.21
96 | C446Q | -0.0282 ± 0.15

Row | Variant | AIRE transcriptional activation functional score
97 | P109D | 0.988 ± 0.12
98 | P109L | 0.821 ± 0.42
99 | T480V | 1.45 ± 0.081
100 | T480K | 0.954 ± 0.12
101 | T480S | 0.786 ± 0.59
102 | S324T | 0.785 ± 0.14
103 | E40I | 0.121 ± 0.83
104 | E40P | 0.61 ± 0.58
105 | E40D | 0.418 ± 0.94
106 | L210V | 0.768 ± 0.24
107 | T524Q | 0.0994 ± 0.1
108 | T524F | 0.0783 ± 0.11
109 | S287A | 1.17 ± 0.32
110 | L495Q | 0.974 ± 0.1
111 | Q57M | -0.643 ± 0.11
112 | V38R | 0.941 ± 0.6
113 | E216H | 0.489 ± 0.083
114 | L67R | -0.769 ± 0.77
115 | L67S | -0.0517 ± 0.24
116 | L285F | 0.835 ± 0.33
117 | A19T | -0.102 ± 0.31
118 | D526Y | 1.02 ± 0.14
119 | L519V | 0.315 ± 0.23
120 | L409P | 1.25 ± 0.17

Row | Variant | AIRE transcriptional activation functional score
121 | P163A | 0.36 ± 0.6
122 | P163T | 0.923 ± 0.82
123 | P163H | 0.674 ± 0.3
124 | V479E | 1.39 ± 0.038
125 | V479Q | 1.24 ± 0.31
126 | V118D | 0.403 ± 0.48
127 | V199D | 0.863 ± 0.13
128 | V199S | 0.671 ± 0.35
129 | P124W | 1.5 ± 0.057
130 | A191I | -0.149 ± 0.19
131 | E508C | 0.854 ± 0.16
132 | A246S | 0.759 ± 0.27
133 | F453C | 0.283 ± 0.1
134 | G313I | 0.979 ± 0.39
135 | K164F | 1.41 ± 0.2
136 | G431E | 0.793 ± 0.22
137 | G435S | 0.74 ± 0.35
138 | G435L | 0.516 ± 0.29
139 | E137S | 0.539 ± 0.22
140 | L417C | 1.24 ± 0.17
141 | L97W | -1.69 ± 0.58
142 | S169W | 1.57 ± 0.081
143 | S169A | 0.813 ± 0.42
144 | A193W | -1.35 ± 0.22

Row | Variant | AIRE transcriptional activation functional score
145 | T147K | 0.787 ± 0.57
146 | T504C | 1.15 ± 0.041
147 | F459R | 0.444 ± 0.11
148 | R513M | 1.01 ± 0.11
149 | A452L | 0.666 ± 0.65
150 | P154E | 0.475 ± 0.28
151 | W531S | 0.218 ± 0.14
152 | L10V | -0.151 ± 0.34
153 | Q293S | 0.559 ± 0.4
154 | Q293W | 1.35 ± 0.054
155 | S332I | 0.887 ± 0.28
156 | G387W | 1.52 ± 0.051
157 | Q157T | 0.825 ± 0.5
158 | D70N | 0.992 ± 0.43
159 | D70L | -0.362 ± 0.63
160 | D70P | -0.549 ± 0.45
161 | P119Y | 1.63 ± 0.1
162 | P119G | 0.741 ± 0.48
163 | P119H | 1.17 ± 0.41
164 | R257A | 0.916 ± 0.36
165 | R257E | 1.12 ± 0.33
166 | T16V | 0.0381 ± 0.39
167 | I533G | 0.261 ± 0.029
